Laboratory results: paper PMC10733448, “An aptamer and Au/Si CCA based SERS sensor for ultra-sensitive detection of Vimentin during EMT in gastric cancer”

Biological target: Vimentin (UniProt P08670 2-466)
Experiment: SERS strand-displacement sensor (signal decrease on Vimentin addition); competes with hybridized complementary strand S3 (5-FAM); binding buffer, salt, pH and temperature not given in the material; aptamer on Au/Si CCA, complementary strand on AuNCs, 6-MCH blocking
Conditions: label: none on the aptamer; reporter 5-FAM is on the complementary strand S3; before protein addition hybridized over its 3' 18 nt to SH-S3-5-FAM on Au nanocubes

Chain of Vimentin (P08670 2-466): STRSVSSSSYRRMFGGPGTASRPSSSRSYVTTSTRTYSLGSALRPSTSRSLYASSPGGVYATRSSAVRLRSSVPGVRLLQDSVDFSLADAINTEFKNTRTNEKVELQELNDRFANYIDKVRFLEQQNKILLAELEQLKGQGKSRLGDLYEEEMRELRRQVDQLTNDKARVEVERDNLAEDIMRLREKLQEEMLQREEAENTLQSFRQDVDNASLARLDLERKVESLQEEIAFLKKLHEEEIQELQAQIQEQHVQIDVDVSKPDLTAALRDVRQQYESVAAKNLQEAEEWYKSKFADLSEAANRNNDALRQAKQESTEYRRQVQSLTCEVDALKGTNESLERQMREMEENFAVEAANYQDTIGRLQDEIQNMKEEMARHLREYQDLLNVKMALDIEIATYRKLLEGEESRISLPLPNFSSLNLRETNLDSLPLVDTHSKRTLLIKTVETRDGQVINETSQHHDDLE

Binder: TAGACCCAGCTGGTCCGGAAAATAAGATGTCACGGATCCTC (ssDNA, thiol (SH) printed at 5' end) [Vimentin aptamer]
- binding result: binds
